Drawing on the supplement of paper PMC6379048, this text covers EC50 for three sequences.

Holding throughout (test): EC50 of free RNA motif oligo competing protein binding to immobilised probe
One data set deals with LRPPRC (UniProt P42704). In a few lines:
(§1)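 Free RNA oligos (0 nM to 30 μM) competed for 1 h at 4°C in HEK293-FT lysate (2.5 mg protein/well) before a 30 min, 4°C pulldown with the same oligos on NHS-Sepharose beads. Bound proteins were quantified by label-free LC-MS/MS and normalised to the control. Kd was found by multiplying EC50, from a four-parameter log-logistic fit, by a protein-dependent depletion factor.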

The target of another data set is MSI2 (UniProt Q96DH6). In outline:
as §1

The target of the next data set is T1, LSM7 (UniProt Q9UK45).
T1 sequence: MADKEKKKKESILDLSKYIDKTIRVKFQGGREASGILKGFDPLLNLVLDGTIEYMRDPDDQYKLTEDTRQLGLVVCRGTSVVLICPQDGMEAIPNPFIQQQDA
In a few lines:
as §1

For another data set, the target named is RPS16 (UniProt P62249). In a few lines: as §1
Another data set deals with T2, KHSRP (UniProt Q92945).
T2 sequence: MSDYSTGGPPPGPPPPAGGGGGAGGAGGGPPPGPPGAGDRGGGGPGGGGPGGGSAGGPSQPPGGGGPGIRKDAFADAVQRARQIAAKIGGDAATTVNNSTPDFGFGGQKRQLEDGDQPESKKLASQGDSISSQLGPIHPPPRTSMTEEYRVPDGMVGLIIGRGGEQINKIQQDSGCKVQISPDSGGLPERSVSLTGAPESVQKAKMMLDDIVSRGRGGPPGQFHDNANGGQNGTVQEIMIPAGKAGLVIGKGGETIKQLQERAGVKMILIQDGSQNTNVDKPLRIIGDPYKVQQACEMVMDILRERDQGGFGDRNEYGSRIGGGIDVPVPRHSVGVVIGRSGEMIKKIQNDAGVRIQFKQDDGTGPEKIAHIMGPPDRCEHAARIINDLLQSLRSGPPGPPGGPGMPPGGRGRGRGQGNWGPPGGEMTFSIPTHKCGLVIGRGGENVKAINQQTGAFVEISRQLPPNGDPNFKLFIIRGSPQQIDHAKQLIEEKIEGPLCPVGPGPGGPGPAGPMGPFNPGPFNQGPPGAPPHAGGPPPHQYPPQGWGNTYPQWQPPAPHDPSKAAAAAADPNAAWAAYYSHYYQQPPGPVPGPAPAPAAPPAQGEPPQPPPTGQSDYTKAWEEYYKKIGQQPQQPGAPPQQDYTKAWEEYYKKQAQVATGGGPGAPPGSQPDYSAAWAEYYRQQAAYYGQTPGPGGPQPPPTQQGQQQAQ
In outline:
as §1

In the next data set the target is T3, LSM4 (UniProt Q9Y4Z0).
T3 sequence: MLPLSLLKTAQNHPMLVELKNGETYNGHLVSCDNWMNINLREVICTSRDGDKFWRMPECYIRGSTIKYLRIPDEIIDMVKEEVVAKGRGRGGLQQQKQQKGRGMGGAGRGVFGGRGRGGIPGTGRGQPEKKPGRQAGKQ
In outline: as §1

For another data set, the target named is TSN (UniProt Q15631). In a few lines:
as §1

For another data set, the target named is T4, RBMS2 (UniProt Q15434).
T4 sequence: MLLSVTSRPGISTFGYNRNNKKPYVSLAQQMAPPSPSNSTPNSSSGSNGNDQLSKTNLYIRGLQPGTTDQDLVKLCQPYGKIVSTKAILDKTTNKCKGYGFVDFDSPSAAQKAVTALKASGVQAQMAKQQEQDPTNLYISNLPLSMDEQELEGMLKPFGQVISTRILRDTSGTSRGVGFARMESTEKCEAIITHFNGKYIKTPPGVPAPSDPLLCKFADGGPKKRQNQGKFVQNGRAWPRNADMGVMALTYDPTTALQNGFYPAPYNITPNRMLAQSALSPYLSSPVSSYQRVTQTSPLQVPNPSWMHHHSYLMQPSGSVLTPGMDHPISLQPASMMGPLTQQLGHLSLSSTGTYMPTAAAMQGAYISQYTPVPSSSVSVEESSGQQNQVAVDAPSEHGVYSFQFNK
In a few lines:
as §1

In the next data set the target is T5, RBM17 (UniProt Q96I25).
T5 sequence: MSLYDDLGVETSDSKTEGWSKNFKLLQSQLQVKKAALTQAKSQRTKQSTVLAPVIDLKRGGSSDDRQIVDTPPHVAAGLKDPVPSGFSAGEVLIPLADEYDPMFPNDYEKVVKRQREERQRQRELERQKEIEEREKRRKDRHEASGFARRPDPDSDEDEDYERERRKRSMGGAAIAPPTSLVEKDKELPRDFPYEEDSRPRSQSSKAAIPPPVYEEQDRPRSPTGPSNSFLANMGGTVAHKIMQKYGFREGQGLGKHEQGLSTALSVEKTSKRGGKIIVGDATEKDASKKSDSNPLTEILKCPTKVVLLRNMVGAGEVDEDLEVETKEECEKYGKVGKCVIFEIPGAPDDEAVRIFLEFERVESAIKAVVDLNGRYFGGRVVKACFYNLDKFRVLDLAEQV
In a few lines: as §1

The target in a further data set is T6, ZNF830 (UniProt Q96NB3).
T6 sequence: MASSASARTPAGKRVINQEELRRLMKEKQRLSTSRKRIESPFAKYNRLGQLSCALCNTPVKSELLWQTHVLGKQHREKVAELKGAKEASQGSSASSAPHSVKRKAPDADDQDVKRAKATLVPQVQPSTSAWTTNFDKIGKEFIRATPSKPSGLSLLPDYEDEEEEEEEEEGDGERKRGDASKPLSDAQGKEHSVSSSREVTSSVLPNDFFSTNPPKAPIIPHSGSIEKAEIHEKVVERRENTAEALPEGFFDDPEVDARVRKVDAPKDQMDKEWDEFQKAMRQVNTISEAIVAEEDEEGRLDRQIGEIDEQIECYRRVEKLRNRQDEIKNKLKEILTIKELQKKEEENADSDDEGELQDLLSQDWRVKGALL
In outline: as §1

TSN, sequence (Q15631 whole entry): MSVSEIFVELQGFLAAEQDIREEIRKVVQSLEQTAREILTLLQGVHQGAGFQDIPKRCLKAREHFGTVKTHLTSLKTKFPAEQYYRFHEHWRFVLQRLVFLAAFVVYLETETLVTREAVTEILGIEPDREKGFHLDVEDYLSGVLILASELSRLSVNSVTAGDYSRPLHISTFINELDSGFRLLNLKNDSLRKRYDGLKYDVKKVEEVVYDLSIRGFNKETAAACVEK
MSI2, sequence (Q96DH6 whole entry): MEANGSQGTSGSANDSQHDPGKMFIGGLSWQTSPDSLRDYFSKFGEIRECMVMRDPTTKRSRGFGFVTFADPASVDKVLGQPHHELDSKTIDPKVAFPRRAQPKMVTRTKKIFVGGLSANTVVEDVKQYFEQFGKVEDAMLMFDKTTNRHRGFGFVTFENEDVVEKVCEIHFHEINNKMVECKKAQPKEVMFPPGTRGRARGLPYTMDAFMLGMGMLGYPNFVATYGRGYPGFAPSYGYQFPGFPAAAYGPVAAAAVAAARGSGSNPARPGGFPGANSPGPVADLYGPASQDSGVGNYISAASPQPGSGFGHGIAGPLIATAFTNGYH

For the sequence AAUAAA, the EC50 with LRPPRC was found to be 2880 nM; with MSI2 it was 826 nM; in the data set with LSM7, 655 nM; with RPS16, 764 nM; with KHSRP it was 2220 nM; with LSM4, 465 nM. Moreover, the EC50 was 58.4 nM with TSN, 1290 nM in the data set with RBMS2, 2490 nM in the data set with RBM17 and 1030 nM with ZNF830.

Regarding CUGUCCU, the 50% effective concentration (EC50) stood at 2270 nM with LRPPRC and 175 nM in the data set with RPS16.

With UAUUUAU, the half-maximal effective concentration (EC50) turned out to be 803 nM with MSI2; 302 nM with LSM7; 1730 nM with KHSRP; 599 nM with LSM4; 75.2 nM with TSN; 545 nM with RBMS2. Moreover, the concentration giving a half-maximal response (EC50) with RBM17 worked out at 93.1 nM; with ZNF830, 378 nM.
